Measurements taken from patent US20220041738A1 (SAITAMA MEDICAL UNIVERSITY, published 2022).
Residue numbers refer to the chain shown, from its start.

Columns and labels:
Test in all cases: immunofluorescence on transfected, formalin-fixed C2C12 cells, IgG at 10 µg/mL, Alexa 594 anti-rat IgG
[1] = target: T1, human ALK2-R202I on cells (human, UniProt Q04771 21-509)
T1 sequence: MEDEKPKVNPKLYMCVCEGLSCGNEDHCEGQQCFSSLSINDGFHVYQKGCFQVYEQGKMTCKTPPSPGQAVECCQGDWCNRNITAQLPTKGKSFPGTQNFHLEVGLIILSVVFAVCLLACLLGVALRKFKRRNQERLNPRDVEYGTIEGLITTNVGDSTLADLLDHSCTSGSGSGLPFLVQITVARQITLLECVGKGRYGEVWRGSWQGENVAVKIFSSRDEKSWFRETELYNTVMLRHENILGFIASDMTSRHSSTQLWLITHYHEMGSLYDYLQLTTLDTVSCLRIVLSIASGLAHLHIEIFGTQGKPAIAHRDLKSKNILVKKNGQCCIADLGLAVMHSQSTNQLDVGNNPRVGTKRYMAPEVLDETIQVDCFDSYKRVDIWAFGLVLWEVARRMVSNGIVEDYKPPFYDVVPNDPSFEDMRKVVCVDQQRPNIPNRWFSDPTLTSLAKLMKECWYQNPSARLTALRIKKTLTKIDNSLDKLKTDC
Protocol: (§1) Mouse C2C12 cells were seeded into a 96-well plate (Greiner Bio-One) at 0.5×10³ cells/well, and cultured in 15% FBS-containing DMEM medium overnight under the conditions of 5% CO₂ at 37° C. On the following day, the C2C12 cells were transfected with each of a wild-type human ALK2 cDNA integrated into pcDEF3; pcDEF3/human ALK2-L196P, pcDEF3/human ALK2-P197_F198delinsL, pcDEF3/human ALK2-R202I, pcDEF3/human ALK2-R206H, pcDEF3/human ALK2-Q207E, pcDEF3/human ALK2-R258S, pcDEF3/human ALK2-G325A, pcDEF3/human ALK2-G328E, pcDEF3/human ALK2-G328R, pcDEF3/human ALK2-G328W, pcDEF3/human ALK2-G356D, and pcDEF3/human ALK2-R375P, which are variants identified in FOP; and pcDEF3 as a control, using Lipofectamine 2000 (Invitrogen), and further cultured overnight.
(§2) The C2C12 cells were fixed with 10% neutral formalin (Nacalai Tesque, Japan) for 20 minutes at room temperature, and then blocked with 10% goat normal serum for 30 minutes. After the blocking agent was removed, purified IgG diluted to 10 μg/mL with the blocking agent was added, and the cells were left for 1 hour at room temperature. After the cells were washed with PBS three times, Goat Alexa 594-conjugated anti-rat IgG (Invitrogen) diluted to 1:1000 with the blocking agent was added, and the cells were left for 1 hour at room temperature. After the cells were washed with PBS three times, the cells were fixed with 10% neutral formalin for 15 minutes at room temperature, and nuclear-stained with DAPI (LifeTechnologies). Fluorescent signals were analyzed with a fluorescence microscope BZ-9000 (Keyence).

[2] = target: T2, human ALK2-R206H on cells (human, UniProt Q04771 21-509)
T2 sequence: T1 sequence with I182R, R186H
Protocol: as §1, §2

[3] = target: T3, wild-type human ALK2 on cells (cDNA in pcDEF3) (human, UniProt Q04771 21-509)
T3 construct: also called wild-type ALK2; ALK2 (WT)
T3 sequence: T1 sequence with I182R
Protocol: as §1, §2

[4] = target: T4, human ALK2-Q207E on cells (human, UniProt Q04771 21-509)
T4 sequence: T1 sequence with I182R, Q187E
Protocol: as §1, §2

Measured: binding result

B1: rat anti-ALK2 monoclonal antibody A2-25C (antibody, V domains shown)
VH: EVQLVESGGGLVQPGGSLKLSCAASGFTFSYYAMSWVCQAPTKGLEWVASISRGGDNTYYRDTVKGRFTTSRDNAKNTLYLQMDSLRSEDTATYYCARLNYNNYFDYWGQGVMVTVSS
VL: DIQMTQSPASLSASLEEIVTITCQASQDIGNWLSWYQQKPGKSPQLLIYGATSLADGVPSRFSGSRSGTQYSLKISRLRVEDIGIYYCLQAYSAPFTFGSGTKLEIKR
notes: Rat monoclonal IgG from a hybridoma; also called 25C11
binds: [1] | [2] | [3] | [4]

B2: rat anti-ALK2 monoclonal antibody A2-27D (antibody, V domains shown)
VH: EVQLVESGGGLVQPGRSLKLSCLASGSTFSNYGMKWIRQAPGKGLEWVASISRSSTYIYYADTVKGRFTISRDNARNTLYLQMTSLRSEDTALYYCAAAISTPFYWYFDFWGPGTVVTVSS
VL: EIVLTQSPTTMAASPGEKVTLNCLASSSVSYMTWYQQKSGASPKLWIYGTSNLASGVPNRFSGSGSGTSYSLAISSMEAEDVATYYCLHLTSYPPYTFGAGTKLELKR
notes: Rat monoclonal IgG from a hybridoma; also called 27D11
binds: [1] | [2] | [3] | [4]
